The substances below were run against Unc5b, Q8K1S3-1.
Unc5b, Q8K1S3-1, sequence (Q8K1S3 whole entry): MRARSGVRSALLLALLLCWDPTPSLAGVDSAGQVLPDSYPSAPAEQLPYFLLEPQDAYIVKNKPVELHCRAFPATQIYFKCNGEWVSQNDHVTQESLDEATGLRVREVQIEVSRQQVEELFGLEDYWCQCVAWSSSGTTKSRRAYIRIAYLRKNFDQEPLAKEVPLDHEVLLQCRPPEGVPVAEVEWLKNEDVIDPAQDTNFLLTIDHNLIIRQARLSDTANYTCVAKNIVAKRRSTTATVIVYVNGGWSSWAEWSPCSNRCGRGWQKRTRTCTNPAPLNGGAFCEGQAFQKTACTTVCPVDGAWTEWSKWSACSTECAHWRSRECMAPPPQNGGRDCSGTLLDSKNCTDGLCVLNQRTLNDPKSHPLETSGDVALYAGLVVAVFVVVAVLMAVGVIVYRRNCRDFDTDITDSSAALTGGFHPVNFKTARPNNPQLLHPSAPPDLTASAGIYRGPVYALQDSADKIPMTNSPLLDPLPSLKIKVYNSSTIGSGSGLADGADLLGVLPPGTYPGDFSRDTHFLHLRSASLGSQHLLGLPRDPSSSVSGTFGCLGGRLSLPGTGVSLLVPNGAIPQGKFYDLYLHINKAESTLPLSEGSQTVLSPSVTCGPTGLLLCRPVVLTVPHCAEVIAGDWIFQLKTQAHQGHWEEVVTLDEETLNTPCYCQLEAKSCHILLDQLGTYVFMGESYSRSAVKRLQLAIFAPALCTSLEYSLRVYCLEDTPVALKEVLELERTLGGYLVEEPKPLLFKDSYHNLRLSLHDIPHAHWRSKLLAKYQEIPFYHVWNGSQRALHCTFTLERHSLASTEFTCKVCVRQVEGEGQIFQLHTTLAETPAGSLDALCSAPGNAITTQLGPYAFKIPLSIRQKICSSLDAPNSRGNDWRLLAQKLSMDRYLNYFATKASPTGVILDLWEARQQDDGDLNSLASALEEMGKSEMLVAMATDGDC

effect of a mutation on the interaction | Substance
disrupting interaction strength | Netrin-1 (Mus musculus) (from UniProt O09118) R348A;R349A
decreasing interaction strength | Netrin-1 (Mus musculus) (from UniProt O09118) R351A;N353A

These substances were tested against unc5b_rat Unc5b (UniProt O08722).
unc5b_rat Unc5b, sequence (O08722 whole entry): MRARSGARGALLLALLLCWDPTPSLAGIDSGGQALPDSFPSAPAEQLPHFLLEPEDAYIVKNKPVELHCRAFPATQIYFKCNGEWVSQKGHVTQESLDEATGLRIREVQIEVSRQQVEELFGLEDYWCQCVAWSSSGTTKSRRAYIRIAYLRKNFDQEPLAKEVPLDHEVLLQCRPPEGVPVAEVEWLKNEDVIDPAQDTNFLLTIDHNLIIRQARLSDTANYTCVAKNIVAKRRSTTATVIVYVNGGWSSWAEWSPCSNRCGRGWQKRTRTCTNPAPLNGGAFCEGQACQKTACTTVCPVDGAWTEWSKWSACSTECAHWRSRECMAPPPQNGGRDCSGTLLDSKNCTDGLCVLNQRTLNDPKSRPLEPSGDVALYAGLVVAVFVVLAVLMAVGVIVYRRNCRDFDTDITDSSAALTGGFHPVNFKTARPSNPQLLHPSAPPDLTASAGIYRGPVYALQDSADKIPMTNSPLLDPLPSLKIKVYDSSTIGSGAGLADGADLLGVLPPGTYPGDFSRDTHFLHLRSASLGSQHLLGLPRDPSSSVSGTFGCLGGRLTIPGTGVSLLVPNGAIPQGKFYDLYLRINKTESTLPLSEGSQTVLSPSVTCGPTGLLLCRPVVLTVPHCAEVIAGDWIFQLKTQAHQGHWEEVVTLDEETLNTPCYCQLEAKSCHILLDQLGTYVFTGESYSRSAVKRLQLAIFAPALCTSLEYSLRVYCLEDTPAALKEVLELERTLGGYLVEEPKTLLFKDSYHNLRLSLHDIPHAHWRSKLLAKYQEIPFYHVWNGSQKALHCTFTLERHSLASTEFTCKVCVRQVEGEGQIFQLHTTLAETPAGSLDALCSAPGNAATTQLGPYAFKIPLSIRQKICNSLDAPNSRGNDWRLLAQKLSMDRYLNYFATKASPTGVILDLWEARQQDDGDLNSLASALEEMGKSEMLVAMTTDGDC

Substance | effect of a mutation on the interaction
Netrin-1 (Homo sapiens) (from UniProt O95631) N353A | decreasing interaction strength
Netrin-1 (Homo sapiens) (from UniProt O95631) R348A;R349A;R351A | decreasing interaction strength
Netrin-1 (Homo sapiens) (from UniProt O95631) S360A | decreasing interaction strength
Netrin-1 (Homo sapiens) (from UniProt O95631) Y357F | with no effect

Further lines, results first:

effect of a mutation on the interaction | Substance
decreasing interaction strength | Netrin-1 (Homo sapiens) (from UniProt O95631) K358L
with no effect | Netrin-1 (Homo sapiens) (from UniProt O95631) R348W

— IntAct's records for PubMed 26859457
